In patent publication US20230121197A1, “ANTIBODIES SPECIFICALLY BINDING THE CARBOXYMETHYLATED CATALYTIC SUBUNIT OF PROTEIN PHOSPHATASE 2A” (Medizinische Universität Wien, priority 2020, published 2023):

T1: C-terminal PP2Ac peptide Y307F, CGEPHVTRRTPDFFL (15-mer)
T1 construct: Non-carboxymethylated; Phe in place of Tyr307; Crosslinked to BSA in the Western blot; free or linked to BSA in the ELISA
T1 peptide: CGEPHVTRRTPDFFL

B1: 7C10-C5 monoclonal antibody (antibody, V domains shown)
VH: DVQLQESGPGLVKPSQSLSLTCSVTGYSITSGYYWNWIRQFPGNKLEWMGYISYDGSNNYNPSLKNRISITRDTSKNQFFLKLNSVTTEDTATYYCAGRFAYWGQGTLVTVSA
VL: DVLMTQTPLSLPVSLGDQASISCRSSQSIVHSNGNTYLEWYLQKPGQSPKLLIYKVSNRFSGVPDRFSGSGSGTDFTLKINRVEAEDLGVYYCFQGSHVPWTFGGGTKLEIK
notes: Used as hybridoma culture supernatant (ELISA, Western blot, IHC) or at 50 µg/mL (SPR); also called 7C10 X63; clone 7C10-C5
B2: 7C10-C5: α-carboxymethylation specific mouse monoclonal IgG1 antibody from single clone hybridoma 7C10-C5 (DSM ACC3350) (antibody)
heavy: MYRMQLLSCIALSLALVTNSDVQLQESGPGLVKPSQSLSLTCSVTGYSITSGYYWNWIRQFPGNKLEWMGYISYDGSNNYNPSLKNRISITRDTSKNQFFLKLNSVTTEDTATYYCAGRFAYWGQGTLVTVSAAKTTAPSVYPLAPVCGDTTGSSVTLGCLVKGYFPEPVTLTWNSGSLSSGVHTFPAVLQSDLYTLSSSVTVTSSTWPSQSITCNVAHPASSTKVDKKIEPRGPTIKPCPPCKCPAPNLLGGPSVFIFPPKIKDVLMISLSPIVTCVVVDVSEDDPDVQISWFVNNVEVHTAQTQTHREDYNSTLRVVSALPIQHQDWMSGKEFKCKVNNKDLPAPIERTISKPKGSVRAPQVYVLPPPEEEMTKKQVTLTCMVTDFMPEDIYVEWTNNGKTELNYKNTEPVLDSDGSYFMYSKLRVEKKNWVERNSYSCSVVHEGLHNHHTTKSFSRTPGK
light: MDMRVPAQLLGLLLLWLSGARCDVLMTQTPLSLPVSLGDQASISCRSSQSIVHSNGNTYLEWYLQKPGQSPKLLIYKVSNRFSGVPDRFSGSGSGTDFTLKINRVEAEDLGVYYCFQGSHVPWTFGGGTKLEIKADAAPTVSIFPPSSEQLTSGGASVVCFLNNFYPKDINVKWKIDGSERQNGVLNSWTDQDSKDSTYSMSSTLTLTKDEYERHNSYTCEATHKTSTSPIVKSFNRNEC
modifications: Amino acid sequence of the recombinant 7C10-C5 heavy chain; Amino acid sequence of the recombinant 7C10-C5 light chain

How the values were obtained:
[1] = molecular target: PP2Ac C-terminal peptide pY307-meL309, ac-HVTRRTPDpYFL-CH3 (human); experiment: ELISA, 4-fold dilution series of coated peptide, hybridoma supernatant 1:50, normalized
[2] = molecular target: T1, C-terminal PP2Ac peptide Y307F, …; experiment: Western blot of 100 ng BSA crosslinked with peptide
Method: 100 ng of BSA crosslinked with peptides (L309: […] (SEQ ID NO:49), Y307F: […] (SEQ ID NO.50), pY307: […]pYFL (SEQ ID NO:51) or meL309: […]-CH₃) (SEQ ID NO:49) was separated by 10% SDS-PAGE and transferred to nitrocellulose membrane (0.2 μm, GE Healthcare). […] The membranes were blocked in 3% non-fatty dry milk (NFDM) in TBS-Tween for 1 h at RT and incubated with single clone hybridoma cell culture supernatant, clone 7C10-C5 diluted 1:100 in 0.5% NFDM in TBS-T (7C10 X63), recombinant single chain variable fragment of antibody 7C10-C5, undiluted (7C10 scFvs), recombinant bivalent single chain variable fragment 7C10-C5, undiluted (7C10 bi-scFvs) or single clone hybridoma cell culture supernatant, clone 1D7 (binding to non-carboxymethylated PP2Ac) 1:100 in 0.5% NFDM in TBS-T o/n at 4° C. After washing 3×5 min in TBS-T, blots incubated with recombinant antibodies were incubated with mouse anti-HA monoclonal antibody 16B12 (recognizing the hemagglutinin (HA) tag on the recombinant antibody), 1:10000 in 0.5% NFDM in TBS-T 2 h at room temperature. After washing 3×5 min in TBS-T, incubation with anti-mouse-HRP coupled secondary antibody for 1 h at RT and 3×10 min washes in TBS-T was performed. ECL was performed with GE Healthcare ECL reagents (RPN2106) mixed 1:3 with Clarity™ Western ECL Substrate, 500 ml #1705061 (Biorad). Signals were detected by exposure of X-ray films. […]

[3] = molecular target: T2, PP6c peptides L305, meL305 (Homo sapiens, UniProt O00743); experiment: ELISA with PP6c C-terminal undecapeptides; assay type: binding
T2 construct: carboxymethylated versus non-methylated PP2Ac, PP4c and PP6c C-terminal undecapeptides
Method: (§1) To further characterize the carboxymethyl-PP2Ac specificity of monoclonal antibody 7C10-C5 ELISAs were performed on carboxymethylated versus non-methylated PP2Ac, PP4c and PP6c C-terminal undecapeptides.
(§2) Specifically, flat-bottom Nunc-Immuno Medisorp 96-well ELISA plates (Thermo; 467320) were coated o/n at 4° C. with 50 μl of either a peptide of the sequence ac-HVTRRTPDYFL-OH (L309) (SEQ ID NO:18) at a concentration of 2 μg/ml in TBS (137 mM NaCl (AppliChem, #131659, 2.7 mM KCl (AppliChem, #131494), 24.8 mM Tris (AppliChem, #A1086), pH 7.4 with HCl), a peptide of the sequence ac-HVTRRTPDYFL-CH3 (meL309) (SEQ ID NO:18) 2 μg/ml in TBS, with a peptide of the sequence (ac-PSKKPVADYFL (L307) (SEQ ID NO:20) at a concentration of 2 μg/ml in TBS or with a peptide of the sequence ac-PSKKPVADYFL-CH3 (meL307) (SEQ ID NO:20) at a concentration of 2 μg/ml in TBS, with a peptide of the sequence ac-IPPRTTTPYFL (L305) (SEQ ID NO:22) at a concentration of 2 μg/ml in TBS or with a peptide of the sequence ac-IPPRTTTPYFL-CH3 (meL305) (SEQ ID NO:22) at a concentration of 2 μg/ml in TBS. […] Bound antibodies were detected colorimetrically by addition of 50 μl of 33 μg/ml […] (TMB) (Sigma, T2885) in 0.1 M sodium acetate pH 6.0 and 0.01% H2O2 (Sigma, H1009). […] The results from 560 nm read were subtracted from the 450 nm read.

[4] = molecular target: T3, PP4c peptides L307, meL307 (Homo sapiens, UniProt P60510); experiment: ELISA with PP4c C-terminal undecapeptides; assay type: binding
T3 construct: carboxymethylated versus non-methylated PP2Ac, PP4c and PP6c C-terminal undecapeptides
Method: as §1, §2

| Molecule | EC50 (read off the curve) [1] [µg/mL] | binding result [2] | carboxymethylated versus non-carboxymethylated PP6c peptide signal [3] | carboxymethylated versus non-carboxymethylated PP4c peptide signal [4] |
| --- | --- | --- | --- | --- |
| B1 | 0.3 | no binding (tested: supernatant 1:100) |  |  |
| B2 |  |  | No significant difference | No significant difference |
